The record followed here is patent publication US20030059827A1 (published 2003).

For the experiment, the target named is T1, GFP (non-modified EGFP) (UniProt P42212 1-238 = GFP).
T1 construct: also called GFP alone; original GFP
Kind of experiment: affinity chromatography on Ni-NTA-bound PDZ, Western blot with anti-GFP. From the text: To carry out the affinity chromatography assay, bacterially-expressed PDZ domains and EGFP derivatives were produced and fused to the different target peptides. The original and modified PDZ domains were expressed in E. coli XL1-Blue as fusions with 6XHis. The EGFP-peptides fusions were expressed in E. coli BL21 as described in Sambrook et al, 1989, Molecular Cloning: A Laboratory Manual, 2nd Ed., Vol 3. The bacterially expressed PDZ domains were then bound to nickel resin (Ni-NTA agarose, Quiagen) as described by the manufacturer. The resin-bound PDZ domains were then incubated with E.coli extracts made from bacteria expressing each of the target peptide-GFP fusions and washed four times with 50 mM NaH₂PO₄, 300 mM NaCl; 20 mM Imidazole; 0,1% of TritonX-100 to remove any unbound proteins. The bound proteins were eluted using 50 mM NaH₂PO₄, 300 mM NaCl; 200 mM Imidazole and analyzed by Western blot using antibodies against GFP to determine the presence of EGFP fused to the target peptide.
For orientation: A western blot detects proteins with antibodies after separation by electrophoresis.

B1: PDZ-3, third PDZ domain of mouse PSD-95 (amino acids 302-402) fused to polyhistidine (6XHis), from plasmid pQEPDZ-3 (other)
chain: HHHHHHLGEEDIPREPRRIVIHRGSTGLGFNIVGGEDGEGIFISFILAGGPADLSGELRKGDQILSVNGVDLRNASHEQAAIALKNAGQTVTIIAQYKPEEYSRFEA
notes: range 302-402; also called original PDZ domain; the original PDZ
With B1, the binding result is recorded as “no binding”.
